Laboratory results: paper PMC10160006 (Nature chemical biology, 2023)

T1: EXT1-pGEn1 (human EXT1 residues 28-746 with N-terminal His8 and StrepII tag) (human, UniProt Q16394 28-746)
T1 sequence (looked up): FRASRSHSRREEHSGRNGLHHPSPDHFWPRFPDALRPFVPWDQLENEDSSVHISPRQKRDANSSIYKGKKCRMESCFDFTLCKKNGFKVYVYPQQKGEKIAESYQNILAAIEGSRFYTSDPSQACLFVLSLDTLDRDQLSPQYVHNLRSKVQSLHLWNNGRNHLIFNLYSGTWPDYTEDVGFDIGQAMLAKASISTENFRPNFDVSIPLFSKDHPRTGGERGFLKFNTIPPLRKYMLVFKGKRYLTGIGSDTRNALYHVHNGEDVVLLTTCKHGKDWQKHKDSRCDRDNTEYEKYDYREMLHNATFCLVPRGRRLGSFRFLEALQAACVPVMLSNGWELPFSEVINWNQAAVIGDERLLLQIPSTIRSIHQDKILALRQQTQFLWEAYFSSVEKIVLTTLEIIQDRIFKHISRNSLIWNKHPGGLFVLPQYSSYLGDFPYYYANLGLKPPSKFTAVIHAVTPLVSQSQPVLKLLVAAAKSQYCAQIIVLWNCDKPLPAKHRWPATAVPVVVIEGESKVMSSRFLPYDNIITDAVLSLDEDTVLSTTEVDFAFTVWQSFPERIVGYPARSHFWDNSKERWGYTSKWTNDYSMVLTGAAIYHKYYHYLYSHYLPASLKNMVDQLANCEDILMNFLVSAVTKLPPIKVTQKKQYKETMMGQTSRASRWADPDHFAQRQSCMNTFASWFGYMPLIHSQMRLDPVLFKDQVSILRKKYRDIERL

B1: human EXT2 (residues 46-718), fusion tags removed by TEV protease (enzyme, UniProt Q93063 46-718, looked up)
chain: WPHSIESSNDWNVEKRSIRDVPVVRLPADSPIPERGDLSCRMHTCFDVYRCGFNPKNKIKVYIYALKKYVDDFGVSVSNTISREYNELLMAISDSDYYTDDINRACLFVPSIDVLNQNTLRIKETAQAMAQLSRWDRGTNHLLFNMLPGGPPDYNTALDVPRDRALLAGGGFSTWTYRQGYDVSIPVYSPLSAEVDLPEKGPGPRQYFLLSSQVGLHPEYREDLEALQVKHGESVLVLDKCTNLSEGVLSVRKRCHKHQVFDYPQVLQEATFCVVLRGARLGQAVLSDVLQAGCVPVVIADSYILPFSEVLDWKRASVVVPEEKMSDVYSILQSIPQRQIEEMQRQARWFWEAYFQSIKAIALATLQIINDRIYPYAAISYEEWNDPPAVKWGSVSNPLFLPLIPPQSQGFTAIVLTYDRVESLFRVITEVSKVPSLSKLLVVWNNQNKNPPEDSLWPKIRVPLKVVRTAENKLSNRFFPYDEIETEAVLAIDDDIIMLTSDELQFGYEVWREFPDRLVGYPGRLHLWDHEMNKWKYESEWTNEVSMVLTGAAFYHKYFNYLYTYKMPGDIKNWVDAHMNCEDIAMNFLVANVTGKAVIKVTPRKKFKCPECTAIDGLSLDQTHMVERSECINKFASVFGTMPLKVVEHRADPVLYKDDFPEKLKSFPNIGSL
modifications: N-glycan on Asn637
B2: EXT2-pGEn2 (human EXT2 residues 46-718 with N-terminal His8, AviTag and GFP) (enzyme, UniProt Q93063 46-718, looked up)
chain: B1 chain
B3: human EXT1 (residues 28-746), fusion tags removed by TEV protease (enzyme, UniProt Q16394 28-746, looked up)
chain: T1 sequence (looked up)
modifications: NAG at Asn330

Legend:
[1] = molecular target: B3; test: cryo-EM structure
[2] = molecular target: T1, EXT1-pGEn1 (human EXT1 residues 28-746 …); test: SEC-MALS
[3] = molecular target: B1; test: cryo-EM structure

Binder: B1
binding result [1]: binds

Binder: B2
binding result [2]: binds

Binder: B3
stoichiometry N [3]: 1 EXT1:EXT2
